Results from doi:10.1101/485656 (bioRxiv, 2018).
Blank lines part the entries; values can stand above or below the molecule they belong to.

What was measured:
[1] = target: FtsZ/FtsA co-filaments on a supported lipid bilayer (Escherichia coli) (UniProt P0ABH0); experiment: single-molecule tracking by TIRF on supported lipid bilayers
FtsA (Escherichia coli) [2] = target: FtsA (Escherichia coli) (UniProt P0ABH0); experiment: MST
FtsA (Escherichia coli) [3] = target: FtsA (Escherichia coli) (UniProt P0ABH0); experiment: TIRF colocalisation on supported lipid bilayers
[4] = target: FtsZ/FtsA co-filaments on a supported lipid bilayer (Escherichia coli) (UniProt P0ABH0); experiment: TIRF colocalisation on supported lipid bilayers
AUC = target: the molecule itself; experiment: AUC

average duration of confinement [1]: 0.41 s
frequency of confinement events, fold over the DDEE mutant [1]: 3 fold
weight of the population with short displacements, fold over FtsN (cyto-DDEE)His [1]: 3 fold
weighted contribution of the confined population, fold over FtsN (cyto-DDEE)His [1]: 2 fold
Kd (FtsA (Escherichia coli) [2]): 324 nM
Pearson correlation coefficient of colocalisation with FtsA (FtsA (Escherichia coli) [3]): 0.8
Pearson correlation coefficient of colocalisation with FtsZ [4]: 0.86
fold lower colocalization efficiency with GMPCPP against GTP [4]: 1.5 fold
Molecule: FtsN_(cyto)His (peptide)

Kd (FtsA (Escherichia coli) [2]): 160 nM
Pearson correlation coefficient of colocalisation with FtsZ [4]: 0.75
Molecule: FtsN_(cyto-D5N)His (peptide)

Pearson correlation coefficient of colocalisation with FtsZ [4]: 0.4
Molecule: FtsQ_(cyto)His (peptide)

Pearson correlation coefficient of FtsA/FtsZ colocalisation (FtsA (Escherichia coli) [3]): 0.79
Molecule: FtsZ (natural protein)

B1: full-length FtsN with a C-terminal oligohistidine tag (natural protein, Escherichia coli, UniProt P29131 1-319, looked up)
chain: MAQRDYVRRSQPAPSRRKKSTSRKKQRNLPAVSPAMVAIAAAVLVTFIGGLYFITHHKKEESETLQSQKVTGNGLPPKPEERWRYIKELESRQPGVRAPTEPSAGGEVKTPEQLTPEQRQLLEQMQADMRQQPTQLVEVPWNEQTPEQRQQTLQRQRQAQQLAEQQRLAQQSRTTEQSWQQQTRTSQAAPVQAQPRQSKPASSQQPYQDLLQTPAHTTAQSKPQQAAPVARAADAPKPTAEKKDERRWMVQCGSFRGAEQAETVRAQLAFEGFDSKITTNNGWNRVVIGPVKGKENADSTLNRLKMAGHTNCIRLAAGG
binding result (AUC): binds
